This passage reports binding signal retained after 1 hour results from patent publication US20200397886A1.

The target of assay [1] is DS-Cav1-foldon-I53-50A (respiratory syncytial virus (RSV)). Briefly: SPR after heat stress of the antigen (70 °C, 1 h); 50 nM DS-Cav1.
Assay [2] addresses DS-Cav1-foldon-I53-50 nanostructure (respiratory syncytial virus (RSV)). Described as above.

D25 monoclonal antibody: the binding signal retained after 1 hour at 70 °C came to 50% in assay [1] and 80% in assay [2].
